Data from article PMC10204187, “The effects of nature‐inspired amino acid substitutions on structural and biochemical properties of the E. coli L‐asparaginase EcAIII” (Protein Science : A Publication of the Protein Society, 2023).

B1: EcAIII (Escherichia coli K-12) (protein)
chain 1: GKAVIAIHGGAGAISRAQMSLQQELRYIEALSAIVETGQKMLEAGESALDVVTEAVRLLEECPLFNAGIGAVFTRDETHELDACVMDGNTLKAGAVAGVSHLRNPVLAARLVMEQSPHVMMIGEGAENFAFARGMERVSPEIFSTSLRYEQLLAARKEGATVLDHSGAPLDEKQKMG
chain 2: TVGAVALDLDGNLAAATSTGGMTNKLPGRVGDSPLVGAGCYANNASVAVSCTGTGEVFIRALAAYDIAALMDYGGLSLAEACERVVMEKLPALGGSGGLIAIDHEGNVALPFNTEGMYRAWGYAGDTPTTGIYREKGDTVATQ
notes: untagged as described; EcAIII gene in pET11d, bacterial expression; precursor autoproteolytically matured to subunits alpha and beta from one gene, (alphabeta)2; purified by DEAE and SEC
B2: EcAIII (Escherichia coli K-12; M200K) (protein)
chain 1: GKAVIAIHGGAGAISRAQMSLQQELRYIEALSAIVETGQKMLEAGESALDVVTEAVRLLEECPLFNAGIGAVFTRDETHELDACVMDGNTLKAGAVAGVSHLRNPVLAARLVMEQSPHVMMIGEGAENFAFARGMERVSPEIFSTSLRYEQLLAARKEGATVLDHSGAPLDEKQKMG
chain 2: TVGAVALDLDGNLAAATSTGGKTNKLPGRVGDSPLVGAGCYANNASVAVSCTGTGEVFIRALAAYDIAALMDYGGLSLAEACERVVMEKLPALGGSGGLIAIDHEGNVALPFNTEGMYRAWGYAGDTPTTGIYREKGDTVATQ
notes: as for B1
B3: EcAIII (Escherichia coli K-12; M200W) (protein)
chain 1: GKAVIAIHGGAGAISRAQMSLQQELRYIEALSAIVETGQKMLEAGESALDVVTEAVRLLEECPLFNAGIGAVFTRDETHELDACVMDGNTLKAGAVAGVSHLRNPVLAARLVMEQSPHVMMIGEGAENFAFARGMERVSPEIFSTSLRYEQLLAARKEGATVLDHSGAPLDEKQKMG
chain 2: TVGAVALDLDGNLAAATSTGGWTNKLPGRVGDSPLVGAGCYANNASVAVSCTGTGEVFIRALAAYDIAALMDYGGLSLAEACERVVMEKLPALGGSGGLIAIDHEGNVALPFNTEGMYRAWGYAGDTPTTGIYREKGDTVATQ
notes: as for B1
B4: EcAIII (Escherichia coli K-12; M200L) (protein)
chain 1: GKAVIAIHGGAGAISRAQMSLQQELRYIEALSAIVETGQKMLEAGESALDVVTEAVRLLEECPLFNAGIGAVFTRDETHELDACVMDGNTLKAGAVAGVSHLRNPVLAARLVMEQSPHVMMIGEGAENFAFARGMERVSPEIFSTSLRYEQLLAARKEGATVLDHSGAPLDEKQKMG
chain 2: TVGAVALDLDGNLAAATSTGGLTNKLPGRVGDSPLVGAGCYANNASVAVSCTGTGEVFIRALAAYDIAALMDYGGLSLAEACERVVMEKLPALGGSGGLIAIDHEGNVALPFNTEGMYRAWGYAGDTPTTGIYREKGDTVATQ
notes: as for B1
B5: EcAIII (Escherichia coli K-12; M200T) (protein)
chain 1: GKAVIAIHGGAGAISRAQMSLQQELRYIEALSAIVETGQKMLEAGESALDVVTEAVRLLEECPLFNAGIGAVFTRDETHELDACVMDGNTLKAGAVAGVSHLRNPVLAARLVMEQSPHVMMIGEGAENFAFARGMERVSPEIFSTSLRYEQLLAARKEGATVLDHSGAPLDEKQKMG
chain 2: TVGAVALDLDGNLAAATSTGGTTNKLPGRVGDSPLVGAGCYANNASVAVSCTGTGEVFIRALAAYDIAALMDYGGLSLAEACERVVMEKLPALGGSGGLIAIDHEGNVALPFNTEGMYRAWGYAGDTPTTGIYREKGDTVATQ
notes: as for B1
B6: EcAIII (Escherichia coli K-12; M200I) (protein)
chain 1: GKAVIAIHGGAGAISRAQMSLQQELRYIEALSAIVETGQKMLEAGESALDVVTEAVRLLEECPLFNAGIGAVFTRDETHELDACVMDGNTLKAGAVAGVSHLRNPVLAARLVMEQSPHVMMIGEGAENFAFARGMERVSPEIFSTSLRYEQLLAARKEGATVLDHSGAPLDEKQKMG
chain 2: TVGAVALDLDGNLAAATSTGGITNKLPGRVGDSPLVGAGCYANNASVAVSCTGTGEVFIRALAAYDIAALMDYGGLSLAEACERVVMEKLPALGGSGGLIAIDHEGNVALPFNTEGMYRAWGYAGDTPTTGIYREKGDTVATQ
notes: as for B1

What follows are molecules tested against T1, EcAIII (Escherichia coli, UniProt P37595, M200L) (assay: X-ray crystal structure). Conditions: covalent; beta-acyl-enzyme intermediate on Thr179, chain D.
T1 construct: gene iaaA; untagged as described; EcAIII gene in pET11d, bacterial expression; precursor autoproteolytically matured to subunits alpha and beta from one gene, (alphabeta)2; purified by DEAE and SEC
Type: binding

For NC(=O)C[C@H](N)C(=O)O [L-Asn], the X-ray crystal structure was “in the structure of variant M200L in chain D, we identified an acyl‐enzyme intermediate”.

Each molecule was assayed against T2, EcAIII (Escherichia coli, UniProt P37595, M200T) (assay: X-ray crystal structure). Conditions: M200T#m monoclinic, 1.84 Å; Gly added at 1:1 molar ratio; active site, two of four sites.
T2 construct: gene iaaA; untagged as described; EcAIII gene in pET11d, bacterial expression; precursor autoproteolytically matured to subunits alpha and beta from one gene, (alphabeta)2; purified by DEAE and SEC
Type: binding

With NCC(=O)O [Gly] the X-ray crystal structure was “In the structure M200T#m, glycine molecules were found in two out of four active sites”.

The molecules below were run on NC(=O)C[C@H](N)C(=O)O (assay: purified protein). Conditions: 20 mM Tris-HCl pH 8.0, 20 °C, L-Asn 0-84 mM.
Type: biochemical, Escherichia coli

Compared with B1, B2 is 1.8-fold higher in Km: 22 ± 3 mM for the first, 40 ± 9 mM for the second.

B3 and B4 are within error of each other in Km: 36 ± 10 mM for the first, 37 ± 5 mM for the second.

Going from B5 to B6, the Km falls from 64 ± 6 mM to 35 ± 4 mM (1.8-fold).

Compared with B1, B2 is 3.9-fold lower in kcat: 501 ± 22.3 s⁻¹ for the first, 127 ± 11.9 s⁻¹ for the second.

B3 and B4 are within 1.5-fold of each other in kcat: 290 ± 37.3 s⁻¹ for the first, 195 ± 12.7 s⁻¹ for the second.

First: B5
Second: B6
The kcat of the first is 2.9-fold lower: 217 ± 10.6 s⁻¹ for the first, 632 ± 37.9 s⁻¹ for the second.
